Measured values: the supplement of paper PMC12667976
± gives the standard error.

B1: library; numbered along this chain (parent)
chain: MATDAALRRLLRLHRTEIAVAVDSAFPLLHALADHDVVPEDKFQETLHLKEKEGCPQAFHALLSWLLTQDSTAILDFWRVLFKDYNLERYGRLQPILDSFPKDVDLSQPRKGRKPPAVPKALVPPPRLPTKRKASEEARAAAPAALTPRGTASPGSQLKAKPPKKPESSAEQQRLPLGNGIQTMSASVQRAVAMSSGDVPGARGAVEGILIQQVFESGGSKKCIQVGGEFYTPSKFEDSGSGKNKARSSSGPKPLVRAKGAQGAAPGGGEARLGQQGSVPAPLALPSDPQLHQKNEDECAVCRDGGELICCDGCPRAFHLACLSPPLREIPSGTWRCSSCLQATVQEVQPRAEEPRPQEPPVETPLPPGLRSAGEEVRGPPGEPLAGMDTTLVYKHLPAPPSAAPLPGLDSSALHPLLCVGPEGQQNLAPGARCGVCGDGTDVLRCTHCAAAFHWRCHFPAGTSRPGTGLRCRSCSGDVTPAPVEGVLAPSPARLAPGPAKDDTASHEPALHRDDLESLLSEHTFDGILQWAIQSMARPAAPFPS

Variants of: B1
Test: AIRE transcriptional activation functional score (insulin promoter-GFP; nonsense median 0, synonymous median 1) (normalised score); higher = higher AIRE activity (more reporter activation)
Settings: with insulin promoter-GFP reporter in HEK293
How it was run: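 Using Bxb1 recombinase, codon-optimized NNN-codon libraries for three AIRE regions were inserted into Flp-In T-REx HEK293 landing-pad cells with an insulin core promoter-GFP reporter. After integrants (mCherry+, BFP−) were sorted at day 7 and expanded for 7 days, the top 10% GFP and unselected integrant populations underwent tile-sequencing. Functional scores are wild-type-subtracted enrichments of variants in select over non-select samples. A cutoff of 10 counts per million in non-select applied, and values were rescaled (nonsense median 0, synonymous median 1) and averaged over biological replicates.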

Variant | AIRE transcriptional activation functional score
V226F | 0.889 ± 0.18
A5F | 0.709 ± 0.23
A5P | 0.767 ± 0.54
Q293T | -0.386 ± 0.78
E329V | 1.1 ± 0.18
E508K | 0.0783 ± 0.32
E508G | 0.721 ± 0.26
L106C | -0.159 ± 0.31
K501S | 1.3 ± 0.21
W455G | 0.965 ± 0.27
S187L | 0.063 ± 0.27
S187K | 0.853 ± 0.12
S187G | 0.706 ± 0.22
K83V | -0.175 ± 0.24
K83E | -0.351 ± 0.23
E88W | 0.779 ± 0.24
S506D | 1.11 ± 0.088
G467I | 0.79 ± 0.5
A19S | 0.921 ± 0.61
Q172S | 0.645 ± 0.63
A142L | 1.17 ± 0.36
A258T | 0.978 ± 0.33
A258P | 1.23 ± 0.13
A121C | 1.3 ± 0.16

Variant | AIRE transcriptional activation functional score
A121M | 1.2 ± 0.16
A121V | 0.67 ± 0.31
T441F | 0.823 ± 0.34
L128S | 0.817 ± 0.16
L128P | 1.17 ± 0.34
L13F | 1.11 ± 0.37
Y85Q | -2.11 ± 0.086
A186R | 0.648 ± 0.28
A186L | 0.0294 ± 0.29
K50I | 0.717 ± 0.35
A191Y | -0.337 ± 0.2
E298S | 0.818 ± 0.26
E298K | 1.07 ± 0.1
K114V | 0.691 ± 0.86
W335R | 1.29 ± 0.29
P539K | 0.00204 ± 0.28
L87F | -0.159 ± 0.11
E363L | 1.29 ± 0.24
G333A | 0.871 ± 0.34
H292F | 0.915 ± 0.5
S476P | 1.02 ± 0.29
A6F | 1.43 ± 0.77
A6T | 0.643 ± 0.46
S24V | 0.582 ± 0.35

Variant | AIRE transcriptional activation functional score
T68Q | -1.24 ± 0.071
P56T | 0.544 ± 0.39
P56A | 0.549 ± 0.53
L320S | 0.896 ± 0.27
S545Y | 1.35 ± 0.053
G369L | 1.46 ± 0.17
A138H | 0.328 ± 0.22
K294Q | 1.43 ± 0.11
L75R | 0.518 ± 0.39
R139G | 1.2 ± 0.28
R139C | 0.377 ± 0.063
G242R | 0.611 ± 0.3
G242D | 0.951 ± 0.22
L67G | -0.0868 ± 0.65
P286R | 1.17 ± 0.44
P286W | 1.61 ± 0.054
L81F | 0.331 ± 0.34
L81D | 0.439 ± 0.029
C419N | 0.258 ± 0.13
G178R | 1.49 ± 0.85
G178F | 1.08 ± 0.051
R272T | 0.941 ± 0.33
C302H | 0.701 ± 0.2
C446P | 0.448 ± 0.13

Variant | AIRE transcriptional activation functional score
N86F | -0.398 ± 0.45
N86K | -0.0593 ± 0.28
H60I | 0.216 ± 0.5
P384T | 1.17 ± 0.12
F82P | -0.365 ± 0.77
F82N | -4.23 ± 0.85
L62A | -0.0777 ± 0.31
G91I | -0.00302 ± 1.2
T72W | 0.0941 ± 0.059
K111Q | -0.0716 ± 0.43
F43M | 0.757 ± 0.1
A145Q | 1.12 ± 0.37
A145C | 1.07 ± 0.26
A145H | 1.37 ± 0.19
P542W | 0.476 ± 0.038
S71W | -0.0187 ± 0.13
G469N | 1 ± 0.089
A284R | 1.12 ± 0.15
A284W | 1.16 ± 0.027
A284V | 1.06 ± 0.16
M184R | 0.932 ± 0.42
M184T | 0.688 ± 0.47
S338W | 0.904 ± 0.038
S338R | 1.2 ± 0.28

Variant | AIRE transcriptional activation functional score
P331A | 1.19 ± 0.23
P331R | 1.41 ± 0.2
P331N | 1.23 ± 0.25
N427H | 0.904 ± 0.29
E485T | 1.02 ± 0.18
E485G | 1.05 ± 0.11
R8I | 0.433 ± 0.29
S250K | 0.556 ± 0.53
S220D | 0.488 ± 0.084
S220L | 1.04 ± 0.25
S220C | 1.21 ± 0.032
A25F | 0.583 ± 0.3
V479G | 0.838 ± 0.33
E517L | 0.0571 ± 0.083
P95I | 0.95 ± 0.28
D36A | 0.22 ± 0.32
D36Q | -0.178 ± 0.26
G306P | 0.361 ± 0.21
G477T | -0.261 ± 0.17
P405H | 1.04 ± 0.12
P163V | 0.445 ± 0.58
P163G | 0.723 ± 0.95
P163K | 1.29 ± 0.082
Q275A | 0.853 ± 0.14

Variant | AIRE transcriptional activation functional score
L520C | 0.467 ± 0.064
S411P | 1.08 ± 0.49
P483R | 1.03 ± 0.24
A117L | 1.13 ± 0.4
G54R | -0.991 ± 0.58
G54W | 0.0658 ± 0.092
P466K | 0.864 ± 0.1
L93D | -0.0637 ± 0.46
F26H | -0.678 ± 0.15
F26Q | -2.95 ± 0.98
L470R | 0.997 ± 0.19
L66T | -0.0651 ± 0.43
L66S | -0.186 ± 0.46
G277T | 0.758 ± 0.045
P430I | 1.28 ± 0.3
P430A | 0.806 ± 0.25
S156R | 0.968 ± 0.47
T504A | 1.58 ± 0.28
T504R | 0.922 ± 0.17
L11Q | 0.602 ± 0.51
P490G | 1.51 ± 0.078
P490W | -0.0714 ± 0.41
P509T | 0.871 ± 0.34
C310I | 0.643 ± 0.19

Variant | AIRE transcriptional activation functional score
E383G | 1.09 ± 0.19
L175D | 1.04 ± 0.98
L175V | 0.629 ± 0.38
S195P | 0.83 ± 0.26
V199N | 0.886 ± 0.05
P116W | 1.13 ± 0.19
D70V | -0.0452 ± 0.4
D70M | -0.516 ± 0.19
S324P | 0.628 ± 0.22
P252N | 1.41 ± 0.035
P252M | 1.88 ± 0.082
P252W | 0.608 ± 0.056
H30F | 0.0787 ± 0.23
H30T | -0.172 ± 0.23
V436A | 0.0856 ± 0.18
P166D | 0.983 ± 0.71
V37K | 0.536 ± 0.23
Q94P | 0.0425 ± 0.51
Q94Y | 0.209 ± 0.094
K245C | 1 ± 0.14
E40W | -0.133 ± 0.065
E40R | -0.956 ± 0.6
D515E | 1.18 ± 0.15
